According to paper PMC8989322 (PLoS Pathogens, 2022):

B1: mAb234 (antibody, V domains shown)
VH: EVQLVESGGGLVKPGGSLRLSCAASGFNFSTHIMNWVRQAPGKGLEWVSSISSSGTYIYYADSMKGRFTISRDNPKNSLYLQMNSLRAEDTAVYYCARARGFIQFHYYMDVWGKGTTVAVSS
VL: SYVLTQPPSVSVAPGKTARITCGGNNIGSKSVHWHQQRPGQAPVLVVYDDKIRPSGIPERFSGSNSGNTATLIISRVEAGDEADYYCQVWHSSSDPVVFGGGTKLTVL
notes: variable region as the heavy chain of m1 (PDB 7RXI); as the light chain of m1 (PDB 7RXI); IgG (captured by anti-human Fc); source: 293F cells, purified (Protein G Sepharose)
B2: mAb236 (antibody, V domains shown)
VH: EVQLVESGGGLVQPGGSLRLSCVASGFNFTTYSMNWVRQAPGKGLEWVSYISSHSNLIYYATSVKGRFTISRDNAKNSLYLQMNSLRAEDTALYYCARGGSLHPSAGADWIDPWGQGTLVTVSS
VL: SYELTQAPSVSVSPGQTATITCSGDKLGDKFTSWYQQKPGQSPVLVIYQDSKRPSGIPERFSASNSGNTATLTISGTRAMDEADYYCQAWDSNTYVFGTGTRVAVL
notes: variable region as the heavy chain of m2 (PDB 7RXJ); as the light chain of m2 (PDB 7RXJ); IgG (captured by anti-human Fc); source: 293F cells, purified (Protein G Sepharose)
B3: mAb1512 (antibody, V domains shown)
VH: KVQLVQSGGGVVQPGRSQRLSCAASGLTLSEYAMHWVRQAPGKGLEWVAVILSDGTKKEYADSVKGRFTISRDNSKNTLYLQMNSLRAEDTAVYYCATDDNILGHCRSKSCQRNYYHGMDVWGQGTTVSVSS
VL: DIVMTQSPLSLPVTPGEPASISCRSSQSLLHSNGKNYLDWYLQKPGQSPQLLIYLGSDRASGVPDRFSGSGSGTDFTLSISRVEAEDVGVYYCMQALQTPFTFGPGTKVDIK
notes: variable region as the heavy chain of m5 (PDB 7RXP); as the light chain of m5 (PDB 7RXP); IgG (captured by anti-human Fc); source: 293F cells, purified (Protein G Sepharose)
B4: mAb352 (antibody, V domains shown)
VH: EVQLVESGGGLVKPGGSLRLSCAASGFSFSEYRMNWVRQAPGKGLEWVSFISSSGTYIDYADSVKGRFTISRDNVNNSLYLQMNNLRAGDTAVYYCARGMGIAVRRFDYWGQGTLVSVSS
VL: SYVLTQPPSVSVAPGQTAKITCGGNNIGSESVHWYQQKPGQAPVLVVYDDAVRPSGIPERFSGSNSRNTATLTISRVEAGDEAAYYCQVWDSSTVASFGGGTKLTVL
notes: variable region as the heavy chain of m3 (PDB 7S0X); as the light chain of m3 (PDB 7S0X); IgG (captured by anti-human Fc); source: 293F cells, purified (Protein G Sepharose)
B5: Fab234 (Fab, V domains shown)
VH: B1 VH
VL: B1 VL
notes: heavy chain of Fab234; light chain of Fab234; From an RTS,S/AS01 vaccinee; alpha-ctCSP class (IGHV3-21 or IGHV3-48 with IGLV3-21 or IGLV3-1); source: ExpiCHO cells, purified (HiTrap Protein G HP, size exclusion chromatography)
B6: Fab236 (Fab, V domains shown)
VH: B2 VH
VL: B2 VL
notes: heavy chain of Fab236; light chain of Fab236; From an RTS,S/AS01 vaccinee; alpha-ctCSP class (IGHV3-21 or IGHV3-48 with IGLV3-21 or IGLV3-1); source: ExpiCHO cells, purified (HiTrap Protein G HP, size exclusion chromatography)
B7: Fab1512 (Fab, V domains shown)
VH: B3 VH
VL: B3 VL
notes: heavy chain of Fab1512 (23-amino-acid CDR H3); light chain of Fab1512; From an RTS,S/AS01 vaccinee; beta-ctCSP class; source: ExpiCHO cells, purified (HiTrap Protein G HP, size exclusion chromatography)
B8: Fab352 (Fab, V domains shown)
VH: B4 VH
VL: B4 VL
notes: heavy chain of Fab352; light chain of Fab352; From an RTS,S/AS01 vaccinee; alpha-ctCSP class (IGHV3-21 or IGHV3-48 with IGLV3-21 or IGLV3-1); source: ExpiCHO cells, purified (HiTrap Protein G HP, size exclusion chromatography)
B9: Fab1488 (Fab, V domains shown)
VH: EVHLVESGGGLVKPGGSLRLSCAASGFTFSSYTMNWVRQAPGKGLEWVSSISSSSTYIYYADSVRGRFTISRDNAKNSLYLQMNSLRAEDSAVYYCARRAGGFDAYYFDYWGQGTLVTVSS
VL: not shown
notes: heavy chain of Fab1488; light chain of Fab1488; From an RTS,S/AS01 vaccinee; alpha-ctCSP class (IGHV3-21 or IGHV3-48 with IGLV3-21 or IGLV3-1); source: ExpiCHO cells, purified (HiTrap Protein G HP, size exclusion chromatography)

target: T1, biotinylated ctCSP Pf16 peptide (residues 283–375 of P. falciparum 3D7 CSP) (Plasmodium falciparum 3D7, UniProt Q7K740, biotin (position not given)); test: ELISA; expressed mAbs screened for reactivity to Pf16 C-term peptide, as previously described [36]; settings: both partners purified
T1 construct: circumsporozoite protein (CSP), P. falciparum 3D7, residues 283-375 (C-terminal domain); the results say biotinylated ctCSP (283-375); also called Pf16 C-term peptide; source: made by Biomatik (Wilmington, Delaware)
T1 sequence (Q7K740 283-375): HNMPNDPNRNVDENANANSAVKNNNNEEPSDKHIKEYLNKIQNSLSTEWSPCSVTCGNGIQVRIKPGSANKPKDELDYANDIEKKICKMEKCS

Binder | binding result
B1 | binds
B2 | binds
B3 | binds
B4 | binds

target: T2, αTSR domain or ctCSP (residues 310–375 of P. falciparum 3D7 CSP) (Plasmodium falciparum 3D7, UniProt Q7K740); test: crystal structure; Fab mixed with ctCSP (310-375) in a 2:1 molar ratio, complex purified by size exclusion chromatography, sitting drop vapor diffusion at 20°C; settings: both partners purified
T2 construct: circumsporozoite protein (CSP), P. falciparum 3D7, residues 310-375 (αTSR domain), followed by a 6xHis tag; pET28a; also called 3D7 peptide; source: E. coli SHUFFLE, purified (Ni cOmplete resin, gel filtration on Superdex 200)
T2 sequence (Q7K740 310-375): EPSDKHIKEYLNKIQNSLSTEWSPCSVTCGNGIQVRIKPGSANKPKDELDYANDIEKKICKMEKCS

Binder | binding result
B5 | binds
B6 | binds
B7 | binds
B8 | binds
B9 | binds
